{"source": "the nanobody polyreactivity screen of Harvey et al. (2022)"}
{"experiment": "yeast display, Sf9 membrane polyspecificity reagent, FACS + sequencing; frameworks hold sequencing errors", "procedure,_shortened": "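A nanobody's polyreactivity label depends on the gate it was sorted from. Yeast display cells were stained with 10% biotinylated, detergent-solubilized Sf9 membrane reagent for 1 hour at 4 °C, enriched on streptavidin microbeads and sorted by FACS. The low and high (top ~1%) gates were set on anti-HA fluorescence for expression and streptavidin fluorescence for reagent binding.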"}
{"sequence": "QVQLVESGGGLVQAGGSLRLSCAASGSTFYHNAMGWYRQAPGKERELVAAMTWSGSRTYYADSVKGRFTISRDNAKNTVYLQMNSLKPEDTAVYYCAARDYWGQGTQVTVSS", "polyreactivity (PSR sort gate)": "high polyreactivity"}
{"sequence": "QVQLVESGGGLVQAGGSLRLSCAASGSTFYHYAMGWYRQAPGKERELVAAISTSGGRTYDADSVKGRFTISRDNAKNNVYLQMNSLKPEDTAVYYCAARPGSWYPSVPSYNYWGQGTQVTVSS", "polyreactivity (PSR sort gate)": "low polyreactivity"}
{"sequence": "QVQLVESGGGLVQAGGSLRLSCAASGSTFYIHAMGWNRQAPGKERELVAAISATGTRTYYADSVKGRFTISRDNAKNTFYLQMNSLKPEDTAVYYWNAVYWYWWVITYVGPGLGYWGQVTQVTVSS", "polyreactivity (PSR sort gate)": "high polyreactivity"}
{"sequence": "QVQLVESGGGLVQAGGSLRLSCAASGSTFYIYAIGLYRQAPGKERELVAAINWRTGSTYYADSVMGRFTISRDNAKNTVYLQMNSLKPEDTAVYYWNAYTQHWSYWGQGTQVTVSS", "polyreactivity (PSR sort gate)": "high polyreactivity"}
{"sequence": "QVQLVESGGGLVQAGGSLRLSCAASGSTFYIYAMGAYRPAPGKERELVARISGSGGSTYYADSVKGRFTISRDNAKNTGYLQMNSLKPEDTAVYYCAADDIYKYYQYYAFPYYRYVYWGHGTQVTVSS", "polyreactivity (PSR sort gate)": "low polyreactivity"}
{"sequence": "QVQLVESGGGLVQAGGSLRLSCAASGSTFYIYAMGWYRQAPGKEREFVAAISRTGGSTYYADSVKGRFTISRDNAKNTVYLQMNSLKPEDTAVYYCAAEYKGFRGRYDYWGQGTQVTVSS", "polyreactivity (PSR sort gate)": "high polyreactivity"}
{"sequence": "QVQLVESGGGLVQAGGSLRLSCAASGSTFYIYAMGWYRQAPGKERELVADITWSGGSTYYADSVKGRFTISRDNAKNTVYLQMNSLKPEDTAVYYCATDSWFGLEYWGQCTQVTVSS", "polyreactivity (PSR sort gate)": "high polyreactivity"}
{"sequence": "QVQLVESGGGLVQAGGSLRLSCAASGSTFYIYAMGWYRQAPGKERELVARISGSGGSTYYADSVKGRFTISRDNAKNTVYLQMNSLKPEDTAVYYCAADDIYKYYQYYAFPYYRYDYWGQGSQVTVSS", "polyreactivity (PSR sort gate)": "low polyreactivity"}
{"sequence": "QVQLVESGGGLVQAGGSLRLSCAASGSTFYIYAMGWYRQAPGKERELVARISGSGGSTYYSDSVKGRFTISRDNSKNTVYLQMNSLKPEVTAVYYCAADDIYKYYQYYAFPYYRYDYWGQGTQVTVSS", "polyreactivity (PSR sort gate)": "low polyreactivity"}
{"sequence": "QVQLVESGGGLVQAGGSLRLSCAASGSTFYIYAMGWYRQAPGKERELVATITRAGTTNYADSVKGRFTISRDNAMNTVYLQMNSLKPEETAVYYCAKRKFRWPYQGSYSYIPFGYCGQGTQVTVSS", "polyreactivity (PSR sort gate)": "high polyreactivity"}
{"sequence": "QVQLVESGGGLVQAGGSLRLSCAASGSTFYKNAMGWYRQAPGKERELVAAINQSGTRTYYADSVKGRFTISRDNAKNTVYLQMNSLKPEDTAVYYCAAGRGPYYRSRTPLYYWGQGTQVTVSS", "polyreactivity (PSR sort gate)": "high polyreactivity"}
{"sequence": "QVQLVESGGGLVQAGGSLRLSCAASGSTFYKNAMGWYRQAPGKERELVAGISRRGGRTYYADSVKGRFTISRDNAKNTVYLQMNSLKPEDTAVYYCNTGHEEDEYDYWGQGTQVTVSS", "polyreactivity (PSR sort gate)": "low polyreactivity"}
{"sequence": "QVQLVESGGGLVQAGGSLRLSCAASGSTFYKYAMGWYRQATGKERELVASTYADSVKGRFTISRDNAKNTVYLQMNSLKPEDTAVYYCAKDTASGPYDYWGQGTQVTVSS", "polyreactivity (PSR sort gate)": "low polyreactivity"}
{"sequence": "QVQLVESGGGLVQAGGSLRLSCAASGSTFYKYGMGWYRPAPGKERELVAAISGSGDSTYYADSVKGRFTISRDNAKNTVYLQMNSLKPEDTAVYYCNAGPWWYLHEYDYWGQGTQVTVSS", "polyreactivity (PSR sort gate)": "low polyreactivity"}
{"sequence": "QVQLVESGGGLVQAGGSLRLSCAASGSTFYLNAMGWYRKAHGKERELVAPINGSGGSTYADSVKGRFTISRDNAKNTVYLQLHSLKPEDTAVYYCAADGTGYPGDSYPGMDYDYWGQVTQVTVSS", "polyreactivity (PSR sort gate)": "low polyreactivity"}
{"sequence": "QVQLVESGGGLVQAGGSLRLSCAASGSTFYLNAMGWYRQAPGKERELVAAINGSGGSTYADSVKGRFTISRDNAKNTVYLQMKSLIQEDTAVYYCAADGSGYPGYSYPGKDYDDWGQGTQVNVSS", "polyreactivity (PSR sort gate)": "low polyreactivity"}
{"sequence": "QVQLVESGGGLVQAGGSLRLSCAASGSTFYLNAMGWYRQAPGKERELVAAISRRGGSTYYADSVKGRFTISRDNAKNTVYLEMNSLKPDDTAVYYCNRARVYGYYAPFDYWGQGTQVTVSS", "polyreactivity (PSR sort gate)": "high polyreactivity"}
{"sequence": "QVQLVESGGGLVQAGGSLRLSCAASGSTFYLNAMGWYRQAPGKERELVAAISSGGRTYYADSVKGRFTISRDNAKNTVYLQMNSLKPEDTAVYYCNAVRYLRGAYNYWGQGTQVTVSS", "polyreactivity (PSR sort gate)": "high polyreactivity"}
{"sequence": "QVQLVESGGGLVQAGGSLRLSCAASGSTFYLNAMGWYRQAPGKERELVAAISSSGGSKYYADSVKGRFTISRDNAKNTVYLQMNSLKPEDTAVYYCACSCFPAVSVYGGDYWGQGTQVTVSS", "polyreactivity (PSR sort gate)": "low polyreactivity"}
{"sequence": "QVQLVESGGGLVQAGGSLRLSCAASGSTFYLYAKGWYRQAPGKEREMVAAITGSGSRTYYADSVKGRFTISRDNAKNTVYLQMHSLNPEDTAVYYCAAKYGWQGGRGRDYWGQGTQVTVSS", "polyreactivity (PSR sort gate)": "high polyreactivity"}
{"sequence": "QVQLVESGGGLVQAGGSLRLSCAASGSTFYLYAMGWYRQAPGKERELVAAISWSGGDKYYADSVKGRFTISRDNAKNTVYLQMNSLKPEDTAVYYCAAEITDSYPGSPRRRDYWGQGTQVTVSS", "polyreactivity (PSR sort gate)": "low polyreactivity"}
{"sequence": "QVQLVESGGGLVQAGGSLRLSCAASGSTFYLYTMGWYRQAPGKERELVAAINRSGGRTYYADSVKGRFTISRDNAKNTVYLQMNSLKPEDTAVYYCAADLASYAYRYDYWGQGTQVTVSS", "polyreactivity (PSR sort gate)": "high polyreactivity"}
{"sequence": "QVQLVESGGGLVQAGGSLRLSCAASGSTFYNAMGWYRQAPGKERELVAAITRSGGSTYYADSVKGRFTISRDNAKNTVYLQMNSLKPEDTAVYYCAAKSIIRPSAPRRDDMDYWGQGTQVTVSS", "polyreactivity (PSR sort gate)": "low polyreactivity"}
{"sequence": "QVQLVESGGGLVQAGGSLRLSCAASGSTFYNNAMGWYRPAPGKERELVAAISSGGGTYYADSVKGRFTISRDNAKNTVYLQMNSLKPEDTAVYYCAAYFANTTHWGRIKRYDYWGQGTQVTVSS", "polyreactivity (PSR sort gate)": "low polyreactivity"}
{"sequence": "QVQLVESGGGLVQAGGSLRLSCAASGSTFYNNAMGWYRQAPGKERESVAAITASGGRTYYADSVKGRFTISRDNAKNTVYLQMNSLKPEDTAVYYCAARGFDRYYWGQGTQVTVSS", "polyreactivity (PSR sort gate)": "high polyreactivity"}
{"sequence": "QVQLVESGGGLVQAGGSLRLSCAASGSTFYNYVMGWYRQAPGKERELVAVINRSGTRTYYADSVKGRLTISRDNAKITVYLQMNSLKPEDTAVYYCNAELSYPGRYDSWGQGTQVTVSS", "polyreactivity (PSR sort gate)": "high polyreactivity"}
{"sequence": "QVQLVESGGGLVQAGGSLRLSCAASGSTFYPNAMGWYRQAPGKERELVAAITDSVGTTNYADSVKGRFTISRDNAKNTVYLQMNSLKPEDTAVYYCAKVKSYWNGYRYYYWGQGTQVTVSS", "polyreactivity (PSR sort gate)": "low polyreactivity"}
{"sequence": "QVQLVESGGGLVQAGGSLRLSCAASGSTFYPYAMGWYRLAPGKERELVAVISSGGSTNYADSVKGRFTISRDNAKNTVYLQMNSLKPEDTAVYYCAADLAVYYIFLALEFNYWGQGTQVTVSS", "polyreactivity (PSR sort gate)": "low polyreactivity"}
{"sequence": "QVQLVESGGGLVQAGGSLRLSCAASGSTFYPYAMGWYRQAPGKEREFVAAISGRGGSTFYADSVKGRFTISRDNAKNTVYIQMNSLKPEDTAVYYCAASVFKLVGYDYWGQGTQVTLSS", "polyreactivity (PSR sort gate)": "high polyreactivity"}
{"sequence": "QVQLVESGGGLVQAGGSLRLSCAASGSTFYPYAMGWYRQAPGKERELVAAISRIGSRTYYADSVKGRFTISRDNAKNTVYLQMNSLKPEDTAVYYCNASYVLTGQRYGYWGQGTQVTVSS", "polyreactivity (PSR sort gate)": "low polyreactivity"}
{"sequence": "QVQLVESGGGLVQAGGSLRLSCAASGSTFYPYAMGWYRQAPGKERELVAAISSGGSTSYADSVKGRFTISRDNAKNTVYLQMNSLKPEDTAVYYCNASSPGAVPVYDYDYWGQGTQVTVSS", "polyreactivity (PSR sort gate)": "low polyreactivity"}
